For the experiment, the target named is T1, Aim3 (budding yeast, UniProt P38266 1-947).
T1 sequence (looked up): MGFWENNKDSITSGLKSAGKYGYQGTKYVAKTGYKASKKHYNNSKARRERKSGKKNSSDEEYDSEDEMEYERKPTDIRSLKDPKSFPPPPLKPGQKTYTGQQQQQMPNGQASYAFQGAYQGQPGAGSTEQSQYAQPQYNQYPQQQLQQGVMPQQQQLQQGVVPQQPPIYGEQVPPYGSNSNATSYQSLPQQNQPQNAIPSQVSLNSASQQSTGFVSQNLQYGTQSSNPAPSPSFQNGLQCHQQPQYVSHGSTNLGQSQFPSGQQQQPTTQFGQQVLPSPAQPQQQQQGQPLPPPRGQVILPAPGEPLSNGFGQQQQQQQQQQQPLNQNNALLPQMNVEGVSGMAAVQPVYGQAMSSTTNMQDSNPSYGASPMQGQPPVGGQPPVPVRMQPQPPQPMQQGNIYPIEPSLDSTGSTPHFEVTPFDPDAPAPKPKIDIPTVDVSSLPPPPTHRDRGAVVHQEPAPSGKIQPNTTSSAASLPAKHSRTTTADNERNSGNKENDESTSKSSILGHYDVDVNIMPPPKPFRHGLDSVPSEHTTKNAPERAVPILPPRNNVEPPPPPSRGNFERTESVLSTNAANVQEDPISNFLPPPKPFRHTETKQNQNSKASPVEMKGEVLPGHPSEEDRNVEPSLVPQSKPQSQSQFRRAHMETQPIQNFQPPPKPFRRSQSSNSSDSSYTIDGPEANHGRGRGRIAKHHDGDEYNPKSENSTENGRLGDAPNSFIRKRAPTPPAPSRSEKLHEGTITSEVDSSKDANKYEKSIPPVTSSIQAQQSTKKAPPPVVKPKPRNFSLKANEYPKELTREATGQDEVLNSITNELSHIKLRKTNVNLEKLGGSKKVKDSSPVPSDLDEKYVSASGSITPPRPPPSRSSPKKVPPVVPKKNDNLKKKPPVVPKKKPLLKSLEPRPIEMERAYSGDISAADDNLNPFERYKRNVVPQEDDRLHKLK
Briefly: pull-down.

B1: Abp1-9myc (Actin binding protein 1) (natural protein, budding yeast, UniProt P15891 1-592, looked up)
chain: MALEPIDYTTHSREIDAEYLKIVRGSDPDTTWLIISPNAKKEYEPESTGSSFHDFLQLFDETKVQYGLARVSPPGSDVEKIIIIGWCPDSAPLKTRASFAANFAAVANNLFKGYHVQVTARDEDDLDENELLMKISNAAGARYSIQTSSKQQGKASTPPVKKSFTPSKSPAPVSKKEPVKTPSPAPAAKISSRVNDNNDDDDWNEPELKERDFDQAPLKPNQSSYKPIGKIDLQKVIAEEKAKEDPRLVQKPTAAGSKIDPSSDIANLKNESKLKRDSEFNSFLGTTKPPSMTESSLKNDDDKVIKGFRNEKSPAQLWAERKAKQNSGNAETKAEAPKPEVPEDEPEGEPDVKDLKSKFEGLAASEKEEEEMENKFAPPPKKSEPTIISPKPFSKPQEPVKAEEAEQPKTDYKKIGNPLPGMHIEADNEEEPEENDDDWDDDEDEAAQPPLPSRNVASGAPVQKEEPEQEEIAPSLPSRNSIPAPKQEEAPEQAPEEEIEEEAEEAAPQLPSRSSAAPPPPPRRATPEKKPKENPWATAEYDYDAAEDNELTFVENDKIINIEFVDDDWWLGELEKDGSKGLFPSNYVSLGN
On to B1, for which the binding result is on record as “binds”.

The values are drawn from publication PMC3562429 (Developmental cell, 2013).
